The target in assay [1] is T1, dsRed.
T1 construct: also called dsRed (horizontal lines)
T1 chain: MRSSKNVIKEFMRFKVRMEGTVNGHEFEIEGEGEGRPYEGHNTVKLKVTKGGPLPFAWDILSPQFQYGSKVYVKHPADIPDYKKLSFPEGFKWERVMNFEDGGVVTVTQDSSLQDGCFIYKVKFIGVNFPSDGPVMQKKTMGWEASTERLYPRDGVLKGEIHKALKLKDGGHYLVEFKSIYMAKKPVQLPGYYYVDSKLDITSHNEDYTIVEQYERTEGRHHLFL
Kind of assay: ELISA, coated antigen, goat anti-human IgG-AP, pNPP, absorbance at 405 nm. A general note: An ELISA detects its analyte on a solid surface through an enzyme-linked reagent.

Assay [2] concerns the target T1, dsRed. The assay is described as above.

Where two headings read alike, the source gives them in different places.

B1: recombinant huMAb-anti-MSP10.2 (antibody, V domains shown)
VH: EVQLVESGGDLVKPGGSLRLSCVVSGFRISTSAMSWVRQVPGKGLEWVSDISESGGSKDYADSVRGRFTISRDTSKNTLYLQMNSLGADDTALYYCAKSVGYFDTSGYYRWDYFDSWGQGTLVTVSS
VL: EIVLTQSPDTLSLSPGETATLSCRASQTVRRNSLAWYQQKPGQAPRLLIYGASDRATGIPDRFSGSGFGTDFTLTVSGLEPEDFAVYYCQQYGTSPRTFGQGTKLEIK
notes: Same heavy chain as huMAb-anti-MSP10.1 with a different kappa light chain; Cloned and expressed like huMAb-anti-MSP10.1 (IgG1m17,1, kappa; N. benthamiana)
Take B1: the binding result in assay [1] was “no binding (tested: 100 µg/ml)”.

B2: recombinant huMAb-anti-MSP10.1 (antibody, V domains shown)
VH: EVQLVESGGDLVKPGGSLRLSCVVSGFRISTSAMSWVRQVPGKGLEWVSDISESGGSKDYADSVRGRFTISRDTSKNTLYLQMNSLGADDTALYYCAKSVGYFDTSGYYRWDYFDSWGQGTLVTVSS
VL: EIVLTQSPDILSLSPGERATLSCRASQALTAKYLAWYQQKPGQVPRLLIYGSSTRATGIPDRFRGSGSGTDFTLTISRLEPADSAVYYCQQYEDSPWTFGQGTKLEIK
notes: also called recombinant human anti MSP-10 antibody huMAb-anti-MSP10.1
B2: in assay [2], the binding result was “no binding (tested: 100 µg/ml)”.

For the origin of these results see patent US20150197562A1 (FRAUNHOFER GESELLSCHAFT ZUR FOERDERUNG DER ANGEWANDTEN …, published 2015).
